The target in this data set is TATA-binding protein (TBP) (human, UniProt P20226 1-339). Description: stopped-flow fluorescence (FRET); 0.1 uM ODN, 0.1-1.0 uM TBP; EMSA: 20 mM HEPES-KOH pH 7.6, 5 mM MgCl2, 70 mM KCl, 1 mM EDTA, 100 ug/ml BSA, 0.01% NP-40 (printed 0.0.1%), 5% glycerol, 25 C; stopped-flow buffer not stated. The settings on record: protein: recombinant; label: 5' TAMRA and 5' FAM; blunt.
Sequence of TATA-binding protein (TBP) (P20226 whole entry): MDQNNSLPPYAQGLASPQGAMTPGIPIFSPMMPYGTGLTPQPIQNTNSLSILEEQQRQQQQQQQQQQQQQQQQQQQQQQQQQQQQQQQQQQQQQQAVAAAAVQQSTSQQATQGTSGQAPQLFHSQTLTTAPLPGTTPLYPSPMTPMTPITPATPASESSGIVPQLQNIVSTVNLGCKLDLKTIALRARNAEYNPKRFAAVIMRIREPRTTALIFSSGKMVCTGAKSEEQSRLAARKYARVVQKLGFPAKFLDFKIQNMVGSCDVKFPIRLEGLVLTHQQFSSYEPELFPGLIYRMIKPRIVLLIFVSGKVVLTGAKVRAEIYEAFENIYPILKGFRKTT

B1: TPI1 promoter rs1800202 ancestral allele (stopped-flow) (dsDNA)
DNA 1: CGCGGCGCTCTATATAAGTGGGCAGT
DNA 2: ACTGCCCACTTATATAGAGCGCCGCG
Turning to B1, the Kd stood at 1 nM.

B2: TPI1 promoter rs1800202 minor allele (stopped-flow) (dsDNA)
DNA 1: CGCGGCGCTCTATAGAAGTGGGCAGT
DNA 2: ACTGCCCACTTCTATAGAGCGCCGCG
Turning to B2, the Kd worked out at 19 nM.

In general, Kd refers to the concentration at which binding is half-saturated.

For the origin of these results see article PMC5517495, “Candidate SNP Markers of Familial and Sporadic Alzheimer's Diseases Are Predicted by a Significant Change in the Affinity of TATA-Binding Protein for Human Gene Promoters”.
